Measurements taken from the supplement of paper PMC9170038.

Tested on: K4 kissing-loop RNA reporter
Assay: apparent KD of K4 kissing-loop reporter; higher = weaker reporter binding
Settings: Eterna round: R107; input ligand: arginine 13.2 mM
Experimental: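 RNA-MaP round R107: designed RNA switches with theophylline, tryptophan, arginine or FMN aptamers are transcribed on-chip within common flanks. They are titrated with a labelled K4 kissing-loop RNA reporter in RNA-MaP buffer (100 mM Tris pH 7.5, 80 mM KCl, 4 mM MgCl2), without ligand or with the indicated ligand. Median apparent KD per design.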
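Note: bound reporter read as fluorescence of individual clusters on recovered sequencing chips by microscopy, with normalized cluster intensities fitted with a binding model.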

Sequence | apparent KD of K4 kissing-loop reporter
UCCUGCAAUCAGCCACGAAAGUGGAUGGAUACCAGAGUCGAAAGACUCCCUUGGCAGCCAGUGAUGUUGGAAGCAGGUAAAUAAA | 501 nM
UGUGUUGUUUUGAUGUUUGGUGUUGCAUGGCAGGAUAUCGUAGAGGCGAGAAGGGCUUUUGUGCGGUAUGAGUGAUGUUUGUAGG [iihymullin] | 372 nM
CGAGUGAUGUUCGUUCGUUUAUUUUUUUGACAGGAUAUGCGGAAACGCAGAAGGGUCACCUUUGAGUUAAAAGAAUUUACGUUAU [Ex FMN A 25] | 475 nM
AGAUGUCCCUGGGAUACCAGUCGGAGUCUCAGGGCUCGGAGUGAUGUUCUGGGAUGUUUCGGCCCUUGGCAGCCCUGGGACUCCC [#2 Exclusion - Theophylline B Attempt #26 (HarryS)] | 266 nM
AGUCCACUCUAAAGAGUGGACCUAAGGGAUACCAGUGAUGUUGGUCACCCUUGGCAGCCCUCUGUCAUCGAUAAAGAUGGCAGCA | 114 nM
GGAUAGGAUAGAGGAUAUGGUAUAUGCAAGAAUAACUUAUCGUGUAAAUCCAUAGGGAGUGAUGUUCCAGAAGGCUGUCCUAUCG [MatMod 11 - Jieux - Exclusion - FMN B] | 244 nM
GCUAUGGUUGGAAGGAGCGUUUAAUUACUAAUAAGAGUGAUGUUCGAUAGUAGGUAAUUGUAGCAGGUAGGUCGCCAACUAUAGC [KL-Arg B25] | 232 nM
CGAGUGAUGUUCGUUCGUUUAUUUCGUUGACAGGAUAUGCGGAAACGCAGAAGGGUCACCUUUGAGUUAACGGAAUUAACGUUAU [Ex FMN A 28] | 452 nM
UGUCAUUGGUCGGCCGCCACUAGACGGACAUAAGUCUGUCAAUAAAGAGUGAUGUUCUUAAAUAAUAGGACCGGGACCGAUGACU [TrypBS 28 #SwitchBubble #StaticStem] | 458 nM
UGUACCGAGUCAGGAUAUGGCGUCGAAAGACGAAAUGGAGUGAUGUUCCUUAUCUGCGAAAGCAGUCCAGAAGGGACUUGGUACU [FmnBS 27 #SwitchBubble #StaticStem #DoubleMagnetSystem] | 120 nM
GGAUAGGACAGAGGAUAUGGUAGUGAUGUUACCAAACUGGUUAUCAAUGUUAGAAAAUUGACAAAUCCAGAAGGCUGUCCUAUCG [KL-XFMN-B14] | 60.7 nM
AACCUGACGACGAGUGAUGUUCGAUGGGAAGGAGCGCGAAGAAAUGCAGGUAGGUCGCCCUAAGAGAGUGUAACGUCAGGAUUAU [1.)] | 303 nM
GGGAGUAGUGCGGCCGCCACUGUGAAAGAAGAAGAAUAUAGUGAUGUUAUAUAGGAAAUAAAGAAUAGGACCGGGCAUUAGAUUU [SSTRyptB.L] | 190 nM
GGAUAGGAUAGAGGAUAUGGGCUAGGCAAGGAUAACUUGUCUAGCAAAUCCAUGAGGAGUGAUGUUCCAGAAGGCUGUCCUAUCG [MatMod 1 - Jieux - Exclusion - FMN B] | 160 nM
GCAGAACGCAGUGAUGUUGCGAAAUCGGAAGGAGCGCGUGAAAACGCAGGUAGGUCGCCGACACAGGGAUUAUAUCCCUGUUUGC [Arginine A K4 17] | 169 nM
CCAUCGCUAUUCGAUACCAGUCUUCGUAGGAAACUACGUCUGCAAAGGAGUGAUGUUCCAGACCCUUGGCAGCGAAUAGUGAUGG [Theophylline B K4 4] | 553 nM
GUUACGCAUGGAAGGAGCGCGAAAAUUAAAUGUGAGUGAUGUUCACAAAUAAAUUAAAUAACGCAGGUAGGUCGCCAUGUGUAAC [Ex Arginine B K4 3] | 77.6 nM
GGAGGGAUCUCGGCCGCCACUCAUAAGAAAUGGGCCUCAGAAAUAUAGUGAUGUUAUAUAAAGAAGAGGACCGGGAGAAAGAAGG [ExTryptoB.D] | 128 nM
UGUCAUUGGUCUGAUACCAGUUGAUAAACUGGAGUGAUGUUCCAAUCGAGAUAACUCGACAACCCUUGGCAGCAGACCGAUGACU [TheoBS 15 #SwitchBubble 13 #StaticStem] | 173 nM
AAAGGCAAAGCCCGAGUGAUGUUCGACGAUACCAGCCUCGAUAGAGGCCCUUGGCAGCGUAAAUGAUCACAAAGCCAAGGAAUAA [#OpenEnded 2 #StaticStem] | 244 nM
GCCGUACGCAUGGAUACCAGCUAGACCGAGUGAUGUUCAGGUCUGAAUGCCGGUAUCAAGAGCCCUUGGCAGCCAUGCGUACGGC | 265 nM
UGAUACCAGACGGCCGCCACUCCUGCAGUCAAAGACUGCUAGGAAAUAUUCGUCCAGUGAUGUUGGAGGACCGGGUCUGGUAUCU [TrypBX 10 #SwitchBubble #Palindromic #StaticStem] | 600 nM
UGUCAUGGAAACAUGAACGUUGAUGUUCGACGAGGACCGGUACGGCCGCCACUCGAGUAAUAGUCAGUGAUGUUGACUUGUUUAA [KL-SSTryp-A form1 sub4] | 101 nM
AAUAAAAUCACGGCCGCCACUGAUGUUAAUAUUAGCAGUGAUGUUGCUAUGUCGUUUUUAUUUAACAGGACCGGGUGAAUAUUUA [JR_ExcTryptoB_Sub013] | 182 nM
UUUCUACCGGGAAGGAGCGUGAAUGAUAAUGGAUAUAGUGAUGUUAUAUAUACGAACGAAUCGCAGGUAGGUCGCCCGGAUCCCU [SSArgB.V] | 594 nM
AUUUGCUAGAAAGGAUAUAUUAGCUUGGUCACCGCGUCCGAUGGUUAAACUUCGUGAGUGAUGUUCAUAGAAGGUUCAGCCUCGA [theeternabot_exclusion_KL_FMN_B_20] | 122 nM
CUACUGAGUGAUGUUCAACAUAAUGUCGAUACCAGCACAUUUGCCUGCCCUUGGCAGCGACGCACCAGGACCUGAGAGUACUGGU [theeternabot_sameState_KL_Theo_A_13] | 637 nM
